Assay results from patent US20200140542A1 (OSAKA UNIVERSITY, published 2020).

B1: anti-CL-2 antibody 2G8 (antibody, IgG2b, V domains shown)
VH: QVNLLQSGAALVKPGASVRLSCRVSGYSFTVSFLHWVKQSHGKSLEWIGYINPYSGSPNYNEKFKSKTTLTVDKSTSTAYMELSGLTSEDSASYYCTNWDYWGQGVMVTVSS
VL: DVVMTQTPVSLSLAIGQPASISCKSSQSLLGSSGKTFLNWILQRPGQSPKRLIYQVSTLYSEVPDRFSGSGSETEFTLKITRVEAEDLGVYYCWQGIHFPHTFGAGTKLELKR
notes: also called clone 2G8; hybridoma culture supernatant 2G8
B2: anti-CL-2 human-rat chimeric antibody 2G8 produced in Example 4 (antibody, V domains shown)
VH: B1 VH
VL: B1 VL
notes: Variable regions of rat 2G8 cloned into vectors with human constant regions (VH: pFUSE-CHIg-hG1, human IgG1); also called anti-CL-2 chimeric antibody 2G8; anti-CL-2 chimeric antibody 2G8a

Assays:
mouse CL-2 [1] = biological target: T1, mouse CL-2 (mouse, UniProt O88552 1-230); experiment: flow cytometry, culture supernatant on transfected cells
T1 construct: whole, on cells; also called mCL-2; mCL-2/L cells
T1 sequence (looked up): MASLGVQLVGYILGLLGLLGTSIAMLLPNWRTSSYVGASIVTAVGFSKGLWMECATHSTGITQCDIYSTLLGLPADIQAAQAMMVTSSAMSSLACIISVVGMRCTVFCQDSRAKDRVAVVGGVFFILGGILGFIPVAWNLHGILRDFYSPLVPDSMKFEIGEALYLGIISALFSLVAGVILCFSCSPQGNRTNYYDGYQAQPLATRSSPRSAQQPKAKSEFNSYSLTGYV
Experimental: (§1) After the hybridoma culture supernatants prepared in Example 1 (1A2, 2G8, and 3B2) were individually added and stirred, the resulting mixtures were allowed to stand on ice for 1 hour. After washing with 0.2% BSA-PBS once, goat anti-rat IgG (H +L)-FITC antibody (KPL) diluted with 1% BSA-PBS was added and stirred, and the resulting mixtures were allowed to stand on ice for 30 minutes. After washing with 0.2% BSA-PBS once, PI (Mitenyi Biotec) diluted with 1% BSA-PBS to a final concentration of 5 μg/mL was added, and FCM analysis was performed.
Further, all the three hybridoma culture supernatants 1A2, 2G8, and 3B2 prepared in Example 1 were also confirmed to have affinity to mCL-2/L cells.

human CL-7 [2] = biological target: T2, human CL-7 (human, UniProt O95471 1-211); experiment: flow cytometry, hybridoma culture supernatant on transfected cells
T2 construct: whole, on cells; also called hCL-7; hCL-7/HT1080 cells
T2 sequence (looked up): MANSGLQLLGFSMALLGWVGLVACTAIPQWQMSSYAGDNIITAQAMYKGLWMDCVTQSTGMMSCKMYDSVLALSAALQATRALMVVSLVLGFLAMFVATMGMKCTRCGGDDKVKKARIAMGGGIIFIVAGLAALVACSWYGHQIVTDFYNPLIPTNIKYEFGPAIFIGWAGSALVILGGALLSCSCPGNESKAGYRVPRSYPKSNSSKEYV
Experimental: as §1

human CL-4 [3] = biological target: T3, human CL-4 (human, UniProt O14493 1-209); experiment: as above
T3 construct: whole, on cells; also called hCL-4; hCL-4/HT1080 cells
T3 sequence (looked up): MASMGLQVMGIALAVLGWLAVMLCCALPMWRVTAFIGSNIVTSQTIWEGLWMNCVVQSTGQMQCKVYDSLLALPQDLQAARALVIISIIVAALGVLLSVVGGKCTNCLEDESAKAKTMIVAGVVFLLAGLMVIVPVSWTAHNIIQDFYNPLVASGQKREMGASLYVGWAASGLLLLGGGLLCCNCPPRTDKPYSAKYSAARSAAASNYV
Experimental: as §1

human CL-3 [4] = biological target: T4, human CL-3 (human, UniProt O15551 1-220); experiment: as above
T4 construct: whole, on cells; also called hCL-3; hCL-3/HT1080 cells
T4 sequence (looked up): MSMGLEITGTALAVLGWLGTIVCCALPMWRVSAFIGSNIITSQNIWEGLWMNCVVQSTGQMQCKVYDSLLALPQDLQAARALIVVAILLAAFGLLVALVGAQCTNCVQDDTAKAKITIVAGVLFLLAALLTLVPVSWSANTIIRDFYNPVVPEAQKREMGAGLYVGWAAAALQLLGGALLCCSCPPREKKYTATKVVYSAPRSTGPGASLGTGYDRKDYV
Experimental: as §1

human CL-9 [5] = biological target: T5, human CL-9 (human, UniProt O95484 1-217); experiment: as above
T5 construct: whole, on cells; also called hCL-9; hCL-9/HT1080 cells
T5 sequence (looked up): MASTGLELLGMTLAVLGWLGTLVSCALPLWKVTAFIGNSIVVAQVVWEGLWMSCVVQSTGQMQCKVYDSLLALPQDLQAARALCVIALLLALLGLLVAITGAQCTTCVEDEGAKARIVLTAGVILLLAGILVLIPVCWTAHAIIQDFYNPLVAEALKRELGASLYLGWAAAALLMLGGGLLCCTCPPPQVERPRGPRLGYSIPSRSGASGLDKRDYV
Experimental: as §1

human CL-6 [6] = biological target: T6, human CL-6 (human, UniProt P56747 1-220); experiment: as above
T6 construct: whole, on cells; also called hCL-6; hCL-6/HT1080 cells
T6 sequence (looked up): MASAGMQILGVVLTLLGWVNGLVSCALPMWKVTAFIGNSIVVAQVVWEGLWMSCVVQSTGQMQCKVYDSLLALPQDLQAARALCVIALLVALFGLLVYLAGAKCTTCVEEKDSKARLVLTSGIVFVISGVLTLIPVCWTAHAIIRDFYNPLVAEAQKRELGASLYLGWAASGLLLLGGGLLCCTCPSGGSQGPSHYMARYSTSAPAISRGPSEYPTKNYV
Experimental: as §1

human CL-1 [7] = biological target: T7, human CL-1 (human, UniProt O95832 1-211); experiment: as above
T7 construct: whole, on cells; also called hCL-1; hCL-1/HT1080 cells
T7 sequence (looked up): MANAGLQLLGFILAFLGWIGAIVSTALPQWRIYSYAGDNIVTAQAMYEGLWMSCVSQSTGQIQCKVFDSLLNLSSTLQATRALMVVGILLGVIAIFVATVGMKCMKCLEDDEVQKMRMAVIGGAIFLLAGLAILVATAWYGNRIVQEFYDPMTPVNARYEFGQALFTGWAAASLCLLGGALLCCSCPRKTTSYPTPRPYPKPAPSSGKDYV
Experimental: as §1

mouse CL-2 [8] = biological target: T1, mouse CL-2; experiment: flow cytometry on transfected cells, antibody at 5 µg/mL
From the text: (§2) hCL-1/HT1080 cells, hCL-2/HT1080 cells, hCL-3/HT1080 cells, hCL-4/HT1080 cells, human CL-5 expressing HT1080 cells (hCL-5/HT1080 cells), hCL-6/HT1080 cells, hCL-7/HT1080 cells, and hCL-9/HT1080 cells, mouse CLDN1 expressing L cells (mCL-1/L cells), mCL-2/L cells, and mouse CL4 expressing L cells (mCL-4/L cells) were individually recovered by trypsin treatment. […] Subsequently, after washing with 0.2% BSA-PBS once, goat anti-human IgG (H+L)-FITC antibody (Jackson ImmunoResearch) diluted with 1% BSA-PBS was added and stirred, and the resulting mixtures were allowed to stand on ice for 30 minutes. After washing with 0.2% BSA-PBS once, PI diluted with 1% BSA-PBS to a final concentration of 5 μg/mL was added, and FCM analysis was performed.

mouse CLDN1 = biological target: T8, mouse CLDN1 (mouse, UniProt O88551 1-211); experiment: flow cytometry on transfected cells
T8 construct: whole, on cells; also called mCL-1; mCL-1/L cells
T8 sequence (looked up): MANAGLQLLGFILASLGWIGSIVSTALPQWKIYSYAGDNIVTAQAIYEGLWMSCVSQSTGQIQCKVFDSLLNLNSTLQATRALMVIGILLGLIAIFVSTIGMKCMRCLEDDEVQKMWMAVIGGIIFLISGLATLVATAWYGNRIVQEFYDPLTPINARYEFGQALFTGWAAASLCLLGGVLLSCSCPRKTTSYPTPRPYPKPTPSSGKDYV
From the text: as §2

human CL-7 [9] = biological target: T2, human CL-7; experiment: flow cytometry on transfected cells
From the text: as §2

mouse CL4 = biological target: T9, mouse CL4 (mouse, UniProt O35054 1-210); experiment: flow cytometry on transfected cells
T9 construct: whole, on cells; also called mCL-4; mCL-4/L cells
T9 sequence (looked up): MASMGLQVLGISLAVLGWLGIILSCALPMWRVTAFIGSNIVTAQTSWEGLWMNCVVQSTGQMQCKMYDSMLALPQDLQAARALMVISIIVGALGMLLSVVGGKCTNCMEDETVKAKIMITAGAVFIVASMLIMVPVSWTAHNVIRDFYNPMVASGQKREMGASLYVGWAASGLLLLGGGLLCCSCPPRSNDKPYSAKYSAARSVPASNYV
From the text: as §2

human CL-5 = biological target: T10, human CL-5 (human, UniProt O00501 1-218); experiment: flow cytometry on transfected cells
T10 construct: whole, on cells; also called hCL-5; hCL-5/HT1080 cells
T10 sequence (looked up): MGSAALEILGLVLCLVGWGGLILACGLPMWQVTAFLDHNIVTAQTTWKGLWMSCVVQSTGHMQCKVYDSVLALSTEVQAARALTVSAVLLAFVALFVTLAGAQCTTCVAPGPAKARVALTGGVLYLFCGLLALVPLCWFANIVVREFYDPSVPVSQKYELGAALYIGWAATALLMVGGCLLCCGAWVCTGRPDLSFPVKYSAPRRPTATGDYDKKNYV
From the text: as §2

human CL-4 [10] = biological target: T3, human CL-4; experiment: flow cytometry on transfected cells
From the text: as §2

human CL-3 [11] = biological target: T4, human CL-3; experiment: flow cytometry on transfected cells
From the text: as §2

human CL-9 [12] = biological target: T5, human CL-9; experiment: flow cytometry on transfected cells
From the text: as §2

human CL-6 [13] = biological target: T6, human CL-6; experiment: flow cytometry on transfected cells
From the text: as §2

human CL-1 [14] = biological target: T7, human CL-1; experiment: flow cytometry on transfected cells
From the text: as §2

Binder | binding result (mouse CL-2 [1]) | binding result (human CL-7 [2]) | binding result (human CL-4 [3]) | binding result (human CL-3 [4]) | binding result (human CL-9 [5]) | binding result (human CL-6 [6]) | binding result (human CL-1 [7]) | binding result (mouse CL-2 [8]) | binding result (mouse CLDN1) | binding result (human CL-7 [9]) | binding result (mouse CL4) | binding result (human CL-5) | binding result (human CL-4 [10]) | binding result (human CL-3 [11]) | binding result (human CL-9 [12]) | binding result (human CL-6 [13]) | binding result (human CL-1 [14])
B1 | binds | no binding | no binding | no binding | no binding | no binding | no binding | – | – | – | – | – | – | – | – | – | –
B2 | – | – | – | – | – | – | – | binds | no binding (tested: 5 µg/mL) | no binding (tested: 5 µg/mL) | no binding (tested: 5 µg/mL) | no binding (tested: 5 µg/mL) | no binding (tested: 5 µg/mL) | no binding (tested: 5 µg/mL) | no binding (tested: 5 µg/mL) | no binding (tested: 5 µg/mL) | no binding (tested: 5 µg/mL)
